Laboratory results reported in PMC6349933.

How the values were obtained:
Assay in all cases: FRET or BRET; acceptor photobleaching FRET between ECFP and EYFP fusions in tobacco leaf epidermis; YFP bleached with a 514 nm laser; E = 100(A − B)/B
EYFP-ROP11 (Arabidopsis) = EYFP-ROP11 (Arabidopsis) (UniProt O82481)
[1] = molecular target: EYFP-ROP11T22N (Arabidopsis) (UniProt O82481)
[2] = molecular target: EYFP-ROP11G17V (Arabidopsis) (UniProt O82481)
[3] = molecular target: BDR1-ECFP (Arabidopsis thaliana)
Chain of BDR1-ECFP (Arabidopsis thaliana) (main, as listed by the source): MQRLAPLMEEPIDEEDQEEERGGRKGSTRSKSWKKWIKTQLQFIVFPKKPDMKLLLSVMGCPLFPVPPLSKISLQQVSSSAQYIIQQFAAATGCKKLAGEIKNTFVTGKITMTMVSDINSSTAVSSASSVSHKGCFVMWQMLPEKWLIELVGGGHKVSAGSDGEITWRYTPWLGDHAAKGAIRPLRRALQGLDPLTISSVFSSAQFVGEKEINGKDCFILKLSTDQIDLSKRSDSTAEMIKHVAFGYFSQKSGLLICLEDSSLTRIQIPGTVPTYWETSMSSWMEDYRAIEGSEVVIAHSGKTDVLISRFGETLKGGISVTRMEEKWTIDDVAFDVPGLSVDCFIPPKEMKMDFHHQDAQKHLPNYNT

| FRET efficiency (EYFP-ROP11 (Arabidopsis)) [%] | FRET efficiency [1] [%] | FRET efficiency [2] [%] | FRET efficiency [3] [%] | Substance |
| --- | --- | --- | --- | --- |
| > 10 | 0 | > 10 |  | BDR1-ECFP (natural protein) |
|  |  |  | 15 | EYFP-WAL (natural protein) |
